Experimental data published in paper doi:10.1101/2022.02.11.480038.

Experiments:
[1] = target: GABARAP K48A mutant (human) (UniProt O95166); assay: ITC
[2] = target: GABARAP Y5F H9A mutant (human) (UniProt O95166); assay: ITC

Kd [1]: 2000 nM
Kd [2]: 2000 nM
Substance: phosphorylated TEX264 LIR (residues 269-278 with p-S271,p-S272) (peptide)
